Blank lines part the entries; values can stand above or below the binder they belong to.
Experiments:
[1] = target: T1, progesterone receptor (UniProt P06401 1-933, limits assumed); experiment: not described
T1 construct: The assay and the construct are not described; also called a related receptor, the progesterone receptor
T1 sequence (looked up): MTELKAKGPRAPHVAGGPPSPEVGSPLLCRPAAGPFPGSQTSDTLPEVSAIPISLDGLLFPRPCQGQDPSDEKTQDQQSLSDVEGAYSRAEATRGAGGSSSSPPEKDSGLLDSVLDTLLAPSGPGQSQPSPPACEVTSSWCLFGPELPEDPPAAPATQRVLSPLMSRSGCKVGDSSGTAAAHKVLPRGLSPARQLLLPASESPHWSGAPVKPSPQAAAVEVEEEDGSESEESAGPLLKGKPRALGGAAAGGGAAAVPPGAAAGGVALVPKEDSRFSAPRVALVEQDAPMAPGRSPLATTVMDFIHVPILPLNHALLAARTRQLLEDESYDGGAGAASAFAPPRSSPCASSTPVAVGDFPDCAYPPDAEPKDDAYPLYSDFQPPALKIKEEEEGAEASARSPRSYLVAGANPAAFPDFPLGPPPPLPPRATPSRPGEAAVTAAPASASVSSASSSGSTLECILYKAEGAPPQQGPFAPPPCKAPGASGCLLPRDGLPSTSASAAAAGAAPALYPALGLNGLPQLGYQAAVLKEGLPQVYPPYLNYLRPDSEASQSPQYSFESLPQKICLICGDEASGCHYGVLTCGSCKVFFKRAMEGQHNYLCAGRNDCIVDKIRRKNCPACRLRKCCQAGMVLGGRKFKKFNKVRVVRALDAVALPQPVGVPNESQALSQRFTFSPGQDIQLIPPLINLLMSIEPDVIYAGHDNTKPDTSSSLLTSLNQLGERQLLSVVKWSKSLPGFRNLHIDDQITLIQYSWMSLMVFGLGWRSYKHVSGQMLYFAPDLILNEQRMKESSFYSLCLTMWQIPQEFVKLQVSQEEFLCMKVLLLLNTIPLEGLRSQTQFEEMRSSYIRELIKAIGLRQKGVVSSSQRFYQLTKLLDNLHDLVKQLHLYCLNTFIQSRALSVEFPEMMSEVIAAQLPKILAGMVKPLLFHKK

[2] = target: T2, full length androgen receptor (human, UniProt P10275 1-920); experiment: not described
T2 construct: Full length AR expressed inside transfected cells (intracellular, not on the surface); also called AR; full length AR
T2 sequence: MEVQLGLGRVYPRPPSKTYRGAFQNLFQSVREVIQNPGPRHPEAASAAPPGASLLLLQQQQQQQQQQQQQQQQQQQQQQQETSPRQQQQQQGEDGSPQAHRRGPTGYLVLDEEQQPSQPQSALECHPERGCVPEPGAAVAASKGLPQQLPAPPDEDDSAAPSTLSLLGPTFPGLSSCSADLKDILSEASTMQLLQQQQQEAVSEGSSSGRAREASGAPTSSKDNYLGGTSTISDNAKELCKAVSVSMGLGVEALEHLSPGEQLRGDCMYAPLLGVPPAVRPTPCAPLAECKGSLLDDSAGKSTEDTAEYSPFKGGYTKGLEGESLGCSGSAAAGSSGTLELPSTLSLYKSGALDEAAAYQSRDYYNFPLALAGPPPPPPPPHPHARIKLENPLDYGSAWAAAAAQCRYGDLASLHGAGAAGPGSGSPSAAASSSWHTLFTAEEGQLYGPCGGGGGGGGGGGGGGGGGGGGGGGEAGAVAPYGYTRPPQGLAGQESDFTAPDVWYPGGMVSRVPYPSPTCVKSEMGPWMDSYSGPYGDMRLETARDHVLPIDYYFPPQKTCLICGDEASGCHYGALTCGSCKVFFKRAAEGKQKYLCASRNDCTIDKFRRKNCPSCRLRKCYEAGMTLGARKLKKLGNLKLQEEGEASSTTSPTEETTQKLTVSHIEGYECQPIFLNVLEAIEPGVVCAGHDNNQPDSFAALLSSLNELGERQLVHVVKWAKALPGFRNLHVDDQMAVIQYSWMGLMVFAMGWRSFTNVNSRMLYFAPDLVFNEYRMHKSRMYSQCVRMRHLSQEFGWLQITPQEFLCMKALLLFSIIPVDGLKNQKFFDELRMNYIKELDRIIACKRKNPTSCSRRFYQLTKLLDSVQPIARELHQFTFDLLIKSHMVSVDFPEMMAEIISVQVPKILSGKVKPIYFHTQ

- binding result [1]: no binding
- binding result [2]: binds
B1: SRCdp200: Amino acids 1050-1240 of SRC-1 (peptide)
peptide: MAPNQLRLQLQQRLQGQQQLIHQNRQAILNQFAATAPVGINMRSGMQQQITPQPPLNAQMLAQRQRELYSQQHRQRQLIQQQRAMLMRQQSFGNNLPPSSGLPVQMGNPRLPQGAPQQFPYPPNYGTNPGTPPASTSPFSQLAANPEASLANRNSMVSRGMTGNIGGQFGTGINPQMQQNVFQYPGAGMVPQ
notes: Expressed in cells from a transfected plasmid; also called SRC derived peptide; 200 amino acid fragment

- binding result [1]: no binding
- binding result [2]: binds
B2: SRCdp100: Amino acids 1050-1150 of SRC-1 (peptide)
peptide: MAPNQLRLQLQQRLQGQQQLIHQNRQAILNQFAATAPVGINMRSGMQQQITPQPPLNAQMLAQRQRELYSQQHRQRQLIQQQRAMLMRQQSFGNNLPPSSGL
notes: Expressed in cells from a transfected plasmid; also called SRCdp(P100); SRC derived peptide

Source: patent publication US20130064881A1 (GRADALIS, published 2013)
